± gives the uncertainty stated by the source.

Here are results for 96 substances from the Human Domainome abundance scans (Beltran et al. 2025).

A short description of this series: abundance fitness (aPCA) (normalised: wild type 0, dead -1); higher = more abundant; growth selection in yeast, the domain comes from the species named. Particulars: Homo sapiens.
As to “Scaffold attachment factor B2 D37R, Q14151”, the abundance fitness was -1.05 ± 0.083.

As for “Scaffold attachment factor B2 D37S, Q14151”, the abundance fitness is -0.556 ± 0.1.

Consider “Scaffold attachment factor B2 D37T, Q14151”, for which the abundance fitness was -0.597 ± 0.089.

“Scaffold attachment factor B2 D37V, Q14151” registered an abundance fitness of -0.651 ± 0.088.

For “Scaffold attachment factor B2 D37W, Q14151”, the abundance fitness was -0.495 ± 0.086.

The substance “Scaffold attachment factor B2 D37Y, Q14151” yielded an abundance fitness of -0.797 ± 0.16.

Turning to “Scaffold attachment factor B2 D48A, Q14151”, the abundance fitness was -0.181 ± 0.085.

Substance “Scaffold attachment factor B2 D48C, Q14151” gave an abundance fitness of -0.188 ± 0.11.

Turning to “Scaffold attachment factor B2 D48F, Q14151”, the abundance fitness was -0.338 ± 0.36.

In the case of “Scaffold attachment factor B2 D48G, Q14151”, the abundance fitness is -0.284 ± 0.077.

“Scaffold attachment factor B2 D48I, Q14151” gave an abundance fitness of -0.555 ± 0.13.

Consider “Scaffold attachment factor B2 D48K, Q14151”, for which the abundance fitness was -0.358 ± 0.084.

“Scaffold attachment factor B2 D48L, Q14151”: the abundance fitness was -0.513 ± 0.094.

The substance “Scaffold attachment factor B2 D48M, Q14151” came in with an abundance fitness of -0.545 ± 0.14.

“Scaffold attachment factor B2 D48P, Q14151” came in with an abundance fitness of 0.03 ± 0.089.

Turning to “Scaffold attachment factor B2 D48Q, Q14151”, the abundance fitness is -0.329 ± 0.11.

The substance “Scaffold attachment factor B2 D48R, Q14151” gave an abundance fitness of -0.625 ± 0.082.

On to “Scaffold attachment factor B2 D48S, Q14151”, for which the abundance fitness was -0.214 ± 0.086.

The substance “Scaffold attachment factor B2 D48T, Q14151” registered an abundance fitness of -0.526 ± 0.083.

Substance “Scaffold attachment factor B2 D48W, Q14151” displayed an abundance fitness of -0.757 ± 0.087.

In turn, “Scaffold attachment factor B2 D48Y, Q14151” returned an abundance fitness of -0.744 ± 0.14.

“Scaffold attachment factor B2 D70A, Q14151”: the abundance fitness is 0.141 ± 0.14.

Regarding “Scaffold attachment factor B2 D70C, Q14151”, the abundance fitness was -0.037 ± 0.12.

Substance “Scaffold attachment factor B2 D70E, Q14151” yielded an abundance fitness of 0.125 ± 0.12.

“Scaffold attachment factor B2 D70F, Q14151” gave an abundance fitness of -0.431 ± 0.15.

Substance “Scaffold attachment factor B2 D70G, Q14151” had an abundance fitness of -0.036 ± 0.11.

In turn, “Scaffold attachment factor B2 D70H, Q14151” registered an abundance fitness of -0.197 ± 0.13.

“Scaffold attachment factor B2 D70I, Q14151” had an abundance fitness of -0.258 ± 0.17.

“Scaffold attachment factor B2 D70K, Q14151” yielded an abundance fitness of -0.337 ± 0.29.

The substance “Scaffold attachment factor B2 D70P, Q14151” displayed an abundance fitness of 0.014 ± 0.13.

“Scaffold attachment factor B2 D70S, Q14151” showed an abundance fitness of -0.094 ± 0.15.

In the case of “Scaffold attachment factor B2 D70V, Q14151”, the abundance fitness is -0.283 ± 0.14.

Consider “Scaffold attachment factor B2 D70W, Q14151”, for which the abundance fitness was -0.576 ± 0.16.

For “Scaffold attachment factor B2 E32A, Q14151”, the abundance fitness was -0.445 ± 0.11.

With “Scaffold attachment factor B2 E32C, Q14151”, the abundance fitness was -0.33 ± 0.12.

In turn, “Scaffold attachment factor B2 E32D, Q14151” returned an abundance fitness of 0.003 ± 0.1.

In turn, “Scaffold attachment factor B2 E32F, Q14151” yielded an abundance fitness of -0.873 ± 0.27.

“Scaffold attachment factor B2 E32H, Q14151” showed an abundance fitness of -0.52 ± 0.23.

“Scaffold attachment factor B2 E32I, Q14151”: the abundance fitness was -0.657 ± 0.14.

Consider “Scaffold attachment factor B2 E32K, Q14151”, for which the abundance fitness was -0.355 ± 0.23.

In turn, “Scaffold attachment factor B2 E32L, Q14151” showed an abundance fitness of -0.543 ± 0.1.

For “Scaffold attachment factor B2 E32M, Q14151”, the abundance fitness is -0.554 ± 0.093.

On to “Scaffold attachment factor B2 E32N, Q14151”, for which the abundance fitness is 0.078 ± 0.35.

In the case of “Scaffold attachment factor B2 E32P, Q14151”, the abundance fitness is -0.474 ± 0.12.

With “Scaffold attachment factor B2 E32Q, Q14151”, the abundance fitness is -0.135 ± 0.087.

In the case of “Scaffold attachment factor B2 E32R, Q14151”, the abundance fitness is -0.431 ± 0.087.

On to “Scaffold attachment factor B2 E32S, Q14151”, for which the abundance fitness is -0.36 ± 0.093.

With “Scaffold attachment factor B2 E32T, Q14151”, the abundance fitness is -0.07 ± 0.13.

With “Scaffold attachment factor B2 E32V, Q14151”, the abundance fitness was -0.393 ± 0.077.

Turning to “Scaffold attachment factor B2 E32W, Q14151”, the abundance fitness was -0.621 ± 0.09.

Consider “Scaffold attachment factor B2 E41L, Q14151”, for which the abundance fitness is -0.876 ± 0.35.

In the case of “Scaffold attachment factor B2 E41R, Q14151”, the abundance fitness was -1.09 ± 0.38.

For “Scaffold attachment factor B2 E41W, Q14151”, the abundance fitness is -1.02 ± 0.23.

Consider “Scaffold attachment factor B2 E58A, Q14151”, for which the abundance fitness was -0.129 ± 0.085.

Substance “Scaffold attachment factor B2 E58C, Q14151” registered an abundance fitness of -0.364 ± 0.12.

Take “Scaffold attachment factor B2 E58D, Q14151”: the abundance fitness was 0.001 ± 0.12.

Turning to “Scaffold attachment factor B2 E58F, Q14151”, the abundance fitness is -0.769 ± 0.11.

“Scaffold attachment factor B2 E58G, Q14151” returned an abundance fitness of -0.26 ± 0.077.

“Scaffold attachment factor B2 E58H, Q14151” gave an abundance fitness of -0.338 ± 0.15.

As to “Scaffold attachment factor B2 E58I, Q14151”, the abundance fitness is -0.576 ± 0.11.

As for “Scaffold attachment factor B2 E58K, Q14151”, the abundance fitness is -0.44 ± 0.17.

“Scaffold attachment factor B2 E58L, Q14151”: the abundance fitness was -0.439 ± 0.077.

For “Scaffold attachment factor B2 E58M, Q14151”, the abundance fitness was -0.162 ± 0.11.

In turn, “Scaffold attachment factor B2 E58N, Q14151” yielded an abundance fitness of -0.201 ± 0.099.

In the case of “Scaffold attachment factor B2 E58P, Q14151”, the abundance fitness is -0.612 ± 0.09.

As to “Scaffold attachment factor B2 E58Q, Q14151”, the abundance fitness is -0.319 ± 0.11.

Regarding “Scaffold attachment factor B2 E58R, Q14151”, the abundance fitness is -0.247 ± 0.072.

As for “Scaffold attachment factor B2 E58T, Q14151”, the abundance fitness is -0.203 ± 0.091.

On to “Scaffold attachment factor B2 E58V, Q14151”, for which the abundance fitness is -0.616 ± 0.076.

As for “Scaffold attachment factor B2 E66A, Q14151”, the abundance fitness was -0.092 ± 0.091.

On to “Scaffold attachment factor B2 E66C, Q14151”, for which the abundance fitness was -0.157 ± 0.13.

In turn, “Scaffold attachment factor B2 E66D, Q14151” came in with an abundance fitness of -0.042 ± 0.13.

Substance “Scaffold attachment factor B2 E66F, Q14151” gave an abundance fitness of -0.417 ± 0.13.

Turning to “Scaffold attachment factor B2 E66G, Q14151”, the abundance fitness was -0.108 ± 0.083.

Substance “Scaffold attachment factor B2 E66H, Q14151” showed an abundance fitness of -0.214 ± 0.11.

Consider “Scaffold attachment factor B2 E66I, Q14151”, for which the abundance fitness was -0.207 ± 0.15.

The substance “Scaffold attachment factor B2 E66K, Q14151” yielded an abundance fitness of -0.5 ± 0.26.

The substance “Scaffold attachment factor B2 E66L, Q14151” returned an abundance fitness of -0.247 ± 0.1.

With “Scaffold attachment factor B2 E66M, Q14151”, the abundance fitness was -0.329 ± 0.12.

Consider “Scaffold attachment factor B2 E66N, Q14151”, for which the abundance fitness was -0.322 ± 0.26.

Regarding “Scaffold attachment factor B2 E66P, Q14151”, the abundance fitness is -0.485 ± 0.16.

In turn, “Scaffold attachment factor B2 E66R, Q14151” showed an abundance fitness of -0.131 ± 0.071.

For “Scaffold attachment factor B2 E66T, Q14151”, the abundance fitness was -0.301 ± 0.21.

“Scaffold attachment factor B2 E66V, Q14151” registered an abundance fitness of -0.232 ± 0.1.

For the substance “Scaffold attachment factor B2 E66W, Q14151”, the abundance fitness is -0.365 ± 0.12.

Take “Scaffold attachment factor B2 E67A, Q14151”: the abundance fitness is -0.23 ± 0.12.

On to “Scaffold attachment factor B2 E67C, Q14151”, for which the abundance fitness is -0.433 ± 0.12.

In turn, “Scaffold attachment factor B2 E67H, Q14151” had an abundance fitness of -0.218 ± 0.4.

With “Scaffold attachment factor B2 E67L, Q14151”, the abundance fitness was -0.495 ± 0.094.

In turn, “Scaffold attachment factor B2 E67M, Q14151” registered an abundance fitness of -0.525 ± 0.11.

“Scaffold attachment factor B2 E67P, Q14151”: the abundance fitness was -0.377 ± 0.12.

As for “Scaffold attachment factor B2 E67Q, Q14151”, the abundance fitness was -0.246 ± 0.1.

“Scaffold attachment factor B2 E67R, Q14151” yielded an abundance fitness of -0.445 ± 0.1.

Turning to “Scaffold attachment factor B2 E67S, Q14151”, the abundance fitness was -0.226 ± 0.095.

Turning to “Scaffold attachment factor B2 E67T, Q14151”, the abundance fitness was -0.381 ± 0.1.

As to “Scaffold attachment factor B2 E67V, Q14151”, the abundance fitness is -0.333 ± 0.1.
